Positions count from the first letter of the chain named. One block for each binder: values may come before it.
Legend:
[1] = target: T1, Clec12A-His protein, Clec12A (H65-A265-WT-EOm-NIgKss-6His) (human, UniProt Q5QGZ9 65-265); assay: Biacore SPR; antibody captured on anti-mouse IgG chip, soluble Clec12A-His at 100 nM in solution; monovalent
T1 construct: The protein was biotinylated for the ELISA binning assay; also called soluble Clec12A-His; soluble Clec12A
T1 sequence: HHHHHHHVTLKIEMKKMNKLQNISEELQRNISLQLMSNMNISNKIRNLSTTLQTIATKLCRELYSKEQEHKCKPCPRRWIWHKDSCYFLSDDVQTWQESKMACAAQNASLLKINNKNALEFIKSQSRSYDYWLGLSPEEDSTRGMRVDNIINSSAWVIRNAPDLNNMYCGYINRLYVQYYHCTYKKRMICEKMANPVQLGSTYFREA
Procedure: (§1) Briefly, […] anti-Clec12A antibodies derived from and produced in hybridoma were tested for their binding affinity on soluble Clec12A in a Biacore SPR system. Briefly, the antibodies were immobilized on anti-mouse IgG sensor chips and bound to soluble Clec12A-His protein (Clec12A extracellular domains fused to 6×His tag (SEQ ID NO: 79)) at 100 nM in the solution phase. The resulting Biacore traces are as shown in […]

[2] = target: T1, Clec12A-His protein, Clec12A …; assay: Biacore SPR; antibody captured on anti-mouse IgG chip, soluble Clec12A-His at 100 nM in solution
Procedure: as §1

Kd [1]: 1.99 nM
B1: anti-Clec12A antibody D (antibody, V domains shown)
VH: QLQLQESGPGLVKPSETLSLTCTVSGGSISSSTYYWGWIRQPPRKGLEWIGSTHYRGSTYYNPSLKSRVTISVDTSKNQFSLKVSSVTAADTAVYYCARELTGEVFDYWGQGTLVTVSS
VL: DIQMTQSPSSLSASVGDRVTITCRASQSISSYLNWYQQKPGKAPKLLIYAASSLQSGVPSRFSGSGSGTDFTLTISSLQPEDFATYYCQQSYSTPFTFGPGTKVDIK
notes: Hybridoma-produced IgG; also called Clone D; anti-Clec12A Clone D antibody

koff [2]: 0.000666 s⁻¹
kon [2]: 176000 M⁻¹ s⁻¹
Kd [1]: 3.78 nM
B2: anti-Clec12A antibody B (antibody, V domains shown)
VH: QVQLVESGGGVVQPGRSLRLSCAASGFTFSSYGMHWVRQAPGKGLEWVAVISYDGSDKYYVDSVKGRFTISRDNSKNTLYLHMNSLRAEDTAVYYCARDKGYYFDYWGQGTLVTVSS
VL: EIVMTQSPATLSLSPGERATLSCRASQSVGNRYLSWYQQKPGQAPRLLIYGASTRATGIPARFSGSGSGTDFTLTISSLQPEDFAVYYCQQDYNLPLTFGGGTKVEIK
notes: Hybridoma-produced IgG; also called Clone B

koff [2]: < 1e-05 s⁻¹
kon [2]: 182000 M⁻¹ s⁻¹
Kd [1]: < 0.0549 nM
B3: anti-Clec12A antibody C (antibody, V domains shown)
VH: B2 VH with Y60S, V61A, T69N, H82Q, K100G, G101S, Y102R
VL: B2 VL with V3F, G30H, N31S, R32K, R46S, L97I, G101Q, K104R, V105L
notes: Hybridoma-produced IgG; also called Clone C

koff [2]: 0.0132 s⁻¹
kon [2]: 4.62e+06 M⁻¹ s⁻¹
Kd [1]: 2.87 nM
B4: anti-Clec12A antibody A (antibody, V domains shown)
VH: QVQLQESGPGLVKPSETLSLTCTVSGGSISTYYWSWIRQPPGKGLEWIGYIYYSGSTKYNPSLKSRVTISVDTSKNLFSLKLSSVTAADTAVYYCAREDYYGSGSPFDYWGQGTLVTVSS
VL: IQMTQSPSSLSASVGDRVTITCRASQGIRYDLGWYQQKPGKAPKLLIYAASSLQSGVPSRFSGSGSGTDFTLTISSLQPEDFATYYCLQDYNFPRTFGQGTKVEIK
notes: Described as a human anti-Clec12A antibody derived from and produced in hybridoma, captured on anti-mouse IgG sensor chips; also called Clone A

— patent US20230111279A1 (Takeda / Millennium, published 2023)
